Assay [1] addresses recombinant soluble TLR4 extracellular domain (amino acids 24-634), FLAG-tagged (UniProt O00206). The assay can be described thus: co-expression with TLR4ECD, harvested medium incubated with [3H]LOS:sCD14, gel filtration. A general note: In gel filtration, larger molecules generally elute earlier.
The target of assay [2] is T1, recombinant soluble TLR4 extracellular domain (amino acids 24-634), FLAG-tagged (UniProt O00206 24-634).
T1 construct: range 24-634; Used as concentrated conditioned medium of HEK293T cells, not purified; also called TLR4ECD; FLAG-TLR4ECD; not shown: N-terminal FLAG tag from pFLAG-CMV
The assay can be described thus: [3H]LOS:MD-2 F126A incubated 30 min at 37 C with concentrated TLR4ECD medium, Mr ~190,000 complex by gel filtration, Scatchard analysis.

Assay [3] deals with T1, recombinant soluble TLR4 extracellular …. The assay can be described thus: saturation binding of [3H]LOS:MD-2 (25,000 cpm/pmol) to soluble TLR4ECD, complex resolved by gel filtration.
For assay [4] the target is unchanged. The assay can be described thus: culture medium of HEK293T cells secreting TLR4ECD spiked with [3H]LOS:sCD14, Sephacryl S200 gel filtration.
For assay [5], the target named is T2, TLR4 stably expressed on HEK293 cells (HEK/TLR4) (UniProt O00206 24-839, limits assumed).
T2 construct: whole, on cells; Cells from Eisai Research Institute (Yang et al., 2000) or Invivogen; also called HEK293/TLR4; cellular TLR4
The assay can be described thus: overnight incubation with HEK/TLR4 cells at 37 C, cell-associated radioactivity by liquid scintillation.

A word on the Kd: it is the constant that tells how readily two partners part at equilibrium.

T1 sequence (O00206 24-634): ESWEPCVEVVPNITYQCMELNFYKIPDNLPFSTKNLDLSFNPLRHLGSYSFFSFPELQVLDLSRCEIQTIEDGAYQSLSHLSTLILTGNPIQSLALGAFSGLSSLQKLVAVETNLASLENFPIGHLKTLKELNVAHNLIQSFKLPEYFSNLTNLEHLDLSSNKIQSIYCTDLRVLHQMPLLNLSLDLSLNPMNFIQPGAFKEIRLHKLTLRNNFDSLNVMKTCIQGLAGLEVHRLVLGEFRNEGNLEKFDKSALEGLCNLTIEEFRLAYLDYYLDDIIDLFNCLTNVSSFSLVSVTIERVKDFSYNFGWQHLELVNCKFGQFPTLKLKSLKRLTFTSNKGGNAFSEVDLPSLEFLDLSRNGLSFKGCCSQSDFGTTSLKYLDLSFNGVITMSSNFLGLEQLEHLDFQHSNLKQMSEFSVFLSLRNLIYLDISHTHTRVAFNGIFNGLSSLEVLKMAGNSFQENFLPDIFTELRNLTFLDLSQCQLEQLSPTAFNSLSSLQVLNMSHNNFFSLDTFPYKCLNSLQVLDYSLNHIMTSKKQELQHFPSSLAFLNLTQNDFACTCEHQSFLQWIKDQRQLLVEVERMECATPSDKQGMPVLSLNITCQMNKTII
Sequence of recombinant soluble TLR4 extracellular domain (amino acids 24-634), FLAG-tagged (UniProt O00206) (O00206 24-634): as above
T2 sequence (O00206 24-839 limits assumed): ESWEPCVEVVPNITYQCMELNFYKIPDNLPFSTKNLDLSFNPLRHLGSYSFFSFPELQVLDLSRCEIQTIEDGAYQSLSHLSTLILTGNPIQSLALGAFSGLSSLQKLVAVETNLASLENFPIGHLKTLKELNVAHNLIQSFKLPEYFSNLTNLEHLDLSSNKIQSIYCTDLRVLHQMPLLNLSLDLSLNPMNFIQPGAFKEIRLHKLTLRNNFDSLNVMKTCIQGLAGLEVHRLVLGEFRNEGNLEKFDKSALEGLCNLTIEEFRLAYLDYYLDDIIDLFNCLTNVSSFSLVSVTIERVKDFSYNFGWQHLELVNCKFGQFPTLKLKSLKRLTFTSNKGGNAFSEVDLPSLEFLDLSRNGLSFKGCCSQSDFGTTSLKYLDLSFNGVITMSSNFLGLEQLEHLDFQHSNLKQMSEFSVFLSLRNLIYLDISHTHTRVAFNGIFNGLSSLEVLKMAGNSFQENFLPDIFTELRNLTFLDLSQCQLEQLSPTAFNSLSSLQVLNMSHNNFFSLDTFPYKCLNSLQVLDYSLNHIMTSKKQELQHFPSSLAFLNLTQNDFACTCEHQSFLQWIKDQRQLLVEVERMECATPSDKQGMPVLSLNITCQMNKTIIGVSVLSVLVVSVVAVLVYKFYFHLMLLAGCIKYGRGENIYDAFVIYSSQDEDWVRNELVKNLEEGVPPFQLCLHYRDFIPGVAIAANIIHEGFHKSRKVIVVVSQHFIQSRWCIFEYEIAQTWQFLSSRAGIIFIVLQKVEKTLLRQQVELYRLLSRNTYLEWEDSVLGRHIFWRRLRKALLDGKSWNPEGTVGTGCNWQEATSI

With “human MD-2 Y131A.K132A double mutant (from UniProt Q9Y6Y9 19-160)”, the reduction of the yield of ([^3H]LOS:MD-2/TLR4ECD)2 against the single mutants in assay [1] was determined as 50%.

B1: monomeric complex of wild-type LOS with human MD-2 F126A (ligand)
chain: QKQYWVCNSSDASISYTYCDKMQYPISINVNPCIELKRSKGLLHIFYIPRRDLKQLYFNLYITVNTMNLPKRKEVICRGSDDDYSFCRALKGETVNTTISFSFKGIKASKGKYKCVVEAISGSPEEMLFCLEFVILHQPNSN
notes: mature; Made in HEK293T cells (MD-2-FLAG-His) for analytical work and in High Five insect cells for preparative amounts; also called LOS:MD-2^F126A; [^3H]LOS:MD-2^F126A; not shown: C-terminal tag: pEF-BOS-MD-2^F126A-FLAG-His insert moved into pBAC11; which tag
B1: the dissociation constant (Kd) in assay [2] is about 200 pM.

B2: monomeric complex of wild-type (hexa-acylated) N. meningitidis LOS with wild-type human MD-2-His6 (ligand)
chain: QKQYWVCNSSDASISYTYCDKMQYPISINVNPCIELKRSKGLLHIFYIPRRDLKQLYFNLYITVNTMNLPKRKEVICRGSDDDYSFCRALKGETVNTTISFSFKGIKFSKGKYKCVVEAISGSPEEMLFCLEFVILHQPNSNHHHHHH
notes: mature; Mr ~25,000; Radiolabel (3H or 14C) is on the LOS; also called [^3H]LOS:MD-2; [^3H]LOS:MD-2-His6
With B2, the Kd in assay [3] was under 300 pM.

B3: monomeric complex of LOS with soluble CD14 (other)
chain: TTPEPCELDDEDFRCVCNFSEPQPDWSEAFQCVSAVEVEIHAGGLNLEPFLKRVDADADPRQYADTVKALRVRRLTVGAAQVPAQLLVGALRVLAYSRLKELTLEDLKITGTMPPLPLEATGLALSSLRLRNVSWATGRSWLAELQQWLKPGLKVLSIAQAHSPAFSCEQVRAFPALTSLDLSDNPGLGERGLMAALCPHKFPAIQNLALRNTGMETPTGVCAALAAAGVQPHSLDLSHNSLRATVNPSAPRCMWSSALNSLNLSFAGLEQVPKGLPAKLRVLDLSCNRLNRAPQPDELPEVDNLTLDGNPFLVPGTALPHEGSMNSGVVPACARSTLSVGVSGTLVL
notes: Mr ~60,000; also called LOS:sCD14; [^3H]LOS:sCD14
In the case of B3, the binding result in assay [4] is “no binding (tested: 1 nM [^3H]LOS:sCD14)”; in assay [5], “no binding (tested: 0.75 ng/ml ^3H-LOS)”.

These data come from US20080125365A1 (UNIVERSITY OF IOWA RESEARCH FOUNDATION, published 2008).
